The target of this experiment is T1, SARS-CoV-2 Wuhan-Hu-1 S-HexaPro-D614G, displayed on HEK293T cells (SARS-CoV-2 Wuhan-Hu-1 with D614G …, UniProt A0A6N0C4S6, D614G).
T1 construct: also called WT (HexaPro-D614G); prefusion stabilized SARS-CoV-2 S D614G
Briefly: flow cytometry on cells. The conditions noted are these: one partner purified. For orientation: In flow cytometry, cells or beads pass a laser one at a time.

B1: A7V3 IgG (antibody, V domains shown)
VH: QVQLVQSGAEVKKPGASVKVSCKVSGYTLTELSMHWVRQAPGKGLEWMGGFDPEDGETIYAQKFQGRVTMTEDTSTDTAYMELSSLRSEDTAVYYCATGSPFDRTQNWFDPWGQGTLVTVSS
VL: QSVVTQPPSVSAAPGQKVTISCSGSSSNIGNNYVSWYQQLPGTAPKLLIYDNNKRPSGIPDRFSGSKSGTSATLGITGLQTGDEADYYCGTWDSSLSAVVFGGGTKLTVL
notes: also called mAb A7V3
Turning to B1, the binding result is “binds”.

Source of the values: doi:10.1101/2021.04.07.438849 (bioRxiv, 2021).
